Reference: publication PMC9482650, “Quantitative fragmentomics allow affinity mapping of interactomes” (Nature Communications, 2022)

B1: GOLT1A, Q6ZVE7 (peptide)
chain: RRLQGTSSMV

The binders below were run against T1, DLG3_1, Q92796 (assay: holdup assay). Details: plain residues with an end cap or a label only (N-terminal biotin on a linker: ado-ado).
T1 sequence (Q92796 125-227, limits assumed, looked up): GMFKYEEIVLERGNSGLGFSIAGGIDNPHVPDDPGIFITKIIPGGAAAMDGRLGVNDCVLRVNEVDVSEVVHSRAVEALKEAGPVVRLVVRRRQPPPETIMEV
Design: key: below the threshold = too weak to quantify, mostly under pKd 3.1 to 4

Binder | pKd
B1 | 3.81

Each binder was assayed against DLG4_2, P78352 (assay: holdup assay). Details: plain residues with an end cap or a label only (N-terminal biotin on a linker: ado-ado).
Design: key: below the threshold = too weak to quantify, mostly under pKd 3.1 to 4

DLG4_2, P78352, sequence (P78352 155-259): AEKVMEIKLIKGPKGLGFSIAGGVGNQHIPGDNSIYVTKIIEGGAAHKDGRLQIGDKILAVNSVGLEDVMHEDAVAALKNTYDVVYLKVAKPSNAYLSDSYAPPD

Binder | pKd
B1 | 4.71

What follows are binders tested against DLG4_3, P78352 (assay: holdup assay). Details: plain residues with an end cap or a label only (N-terminal biotin on a linker: ado-ado).
Design: key: below the threshold = too weak to quantify, mostly under pKd 3.1 to 4

DLG4_3, P78352, sequence (P78352 306-403): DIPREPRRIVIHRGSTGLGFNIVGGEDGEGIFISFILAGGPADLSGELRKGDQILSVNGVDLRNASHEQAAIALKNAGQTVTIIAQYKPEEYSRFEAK

Binder | pKd
B1 | below the threshold

These binders were tested against T2, FRMPD1, Q5SYB0 (assay: holdup assay). Details: plain residues with an end cap or a label only (N-terminal biotin on a linker: ado-ado).
T2 sequence (Q5SYB0 52-145, limits assumed, looked up): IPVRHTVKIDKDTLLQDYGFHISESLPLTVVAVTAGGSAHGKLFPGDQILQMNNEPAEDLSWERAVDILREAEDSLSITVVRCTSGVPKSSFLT
Design: key: below the threshold = too weak to quantify, mostly under pKd 3.1 to 4

Binder | pKd
B1 | below the threshold

Each binder was assayed against FRMPD2_1, Q68DX3 (assay: holdup assay). Details: plain residues with an end cap or a label only (N-terminal biotin on a linker: ado-ado).
Design: key: below the threshold = too weak to quantify, mostly under pKd 3.1 to 4

FRMPD2_1, Q68DX3, sequence (Q68DX3 770-861): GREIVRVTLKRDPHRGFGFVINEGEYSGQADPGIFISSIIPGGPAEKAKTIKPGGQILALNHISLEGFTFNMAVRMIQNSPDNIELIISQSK

Binder | pKd
B1 | below the threshold

The binders below were run against GRIP2_3, Q9C0E4 (assay: holdup assay). Details: plain residues with an end cap or a label only (N-terminal biotin on a linker: ado-ado).
Design: key: below the threshold = too weak to quantify, mostly under pKd 3.1 to 4

GRIP2_3, Q9C0E4, sequence (Q9C0E4 238-339): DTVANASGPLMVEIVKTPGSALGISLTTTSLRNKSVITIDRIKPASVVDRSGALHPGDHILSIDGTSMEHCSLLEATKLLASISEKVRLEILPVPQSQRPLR

Binder | pKd
B1 | below the threshold

What follows are binders tested against HTRA1, Q92743 (assay: holdup assay). Details: plain residues with an end cap or a label only (N-terminal biotin on a linker: ado-ado).
Design: key: below the threshold = too weak to quantify, mostly under pKd 3.1 to 4

HTRA1, Q92743, sequence (Q92743 360-477): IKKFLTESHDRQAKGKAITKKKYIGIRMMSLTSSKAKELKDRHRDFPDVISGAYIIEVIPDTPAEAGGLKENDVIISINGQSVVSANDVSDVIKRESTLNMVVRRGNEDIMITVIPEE

Binder | pKd
B1 | 4

What follows are binders tested against HTRA2, O43464 (assay: holdup assay). Details: plain residues with an end cap or a label only (N-terminal biotin on a linker: ado-ado).
Design: key: below the threshold = too weak to quantify, mostly under pKd 3.1 to 4

HTRA2, O43464, sequence (O43464 355-458): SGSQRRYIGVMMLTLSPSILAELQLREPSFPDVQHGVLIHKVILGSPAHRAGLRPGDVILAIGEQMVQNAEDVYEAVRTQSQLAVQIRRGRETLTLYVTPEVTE

Binder | pKd
B1 | below the threshold

The binders below were run against IL16_1, Q14005 (assay: holdup assay). Details: plain residues with an end cap or a label only (N-terminal biotin on a linker: ado-ado).
Design: key: below the threshold = too weak to quantify, mostly under pKd 3.1 to 4

IL16_1, Q14005, sequence (Q14005 210-306): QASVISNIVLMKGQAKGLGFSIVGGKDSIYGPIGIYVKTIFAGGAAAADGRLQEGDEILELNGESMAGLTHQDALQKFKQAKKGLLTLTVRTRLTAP

Binder | pKd
B1 | 4.13

Each binder was assayed against IL16_3, Q14005 (assay: holdup assay). Details: plain residues with an end cap or a label only (N-terminal biotin on a linker: ado-ado).
Design: key: below the threshold = too weak to quantify, mostly under pKd 3.1 to 4

IL16_3, Q14005, sequence (Q14005 1107-1207): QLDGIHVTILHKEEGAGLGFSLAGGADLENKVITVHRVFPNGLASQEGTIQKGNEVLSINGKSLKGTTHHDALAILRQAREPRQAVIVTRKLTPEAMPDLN

Binder | pKd
B1 | below the threshold

What follows are binders tested against IL16_4, Q14005 (assay: holdup assay). Details: plain residues with an end cap or a label only (N-terminal biotin on a linker: ado-ado).
Design: key: below the threshold = too weak to quantify, mostly under pKd 3.1 to 4

IL16_4, Q14005, sequence (Q14005 1229-1329): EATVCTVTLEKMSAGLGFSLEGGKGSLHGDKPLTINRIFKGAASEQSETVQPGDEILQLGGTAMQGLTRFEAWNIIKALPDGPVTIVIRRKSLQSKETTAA

Binder | pKd
B1 | below the threshold

These binders were tested against Inadl_4, Q8NI35 (assay: holdup assay). Details: plain residues with an end cap or a label only (N-terminal biotin on a linker: ado-ado).
Design: key: below the threshold = too weak to quantify, mostly under pKd 3.1 to 4

Inadl_4, Q8NI35, sequence (Q8NI35 547-651): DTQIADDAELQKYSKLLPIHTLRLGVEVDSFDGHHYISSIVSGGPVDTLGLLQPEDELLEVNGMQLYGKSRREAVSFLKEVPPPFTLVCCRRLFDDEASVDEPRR

Binder | pKd
B1 | below the threshold

These binders were tested against Inadl_8, Q8NI35 (assay: holdup assay). Details: plain residues with an end cap or a label only (N-terminal biotin on a linker: ado-ado).
Design: key: below the threshold = too weak to quantify, mostly under pKd 3.1 to 4

Inadl_8, Q8NI35, sequence (Q8NI35 1425-1530): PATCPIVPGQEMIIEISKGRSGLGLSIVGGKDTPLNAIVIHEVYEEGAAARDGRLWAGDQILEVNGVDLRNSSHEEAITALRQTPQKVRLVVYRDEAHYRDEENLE

Binder | pKd
B1 | 4.08

What follows are binders tested against LIMK2, P53671 (assay: holdup assay). Details: plain residues with an end cap or a label only (N-terminal biotin on a linker: ado-ado).
Design: key: below the threshold = too weak to quantify, mostly under pKd 3.1 to 4

LIMK2, P53671, sequence (P53671 143-248): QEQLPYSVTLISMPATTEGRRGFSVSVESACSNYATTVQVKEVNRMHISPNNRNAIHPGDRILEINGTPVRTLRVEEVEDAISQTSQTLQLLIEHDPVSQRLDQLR

Binder | pKd
B1 | below the threshold

Each binder was assayed against T3, LIN7B, Q9HAP6 (assay: holdup assay). Details: plain residues with an end cap or a label only (N-terminal biotin on a linker: ado-ado).
T3 sequence (Q9HAP6 88-185, limits assumed, looked up): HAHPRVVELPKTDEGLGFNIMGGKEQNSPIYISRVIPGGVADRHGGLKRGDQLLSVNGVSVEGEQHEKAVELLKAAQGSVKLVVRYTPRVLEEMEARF
Design: key: below the threshold = too weak to quantify, mostly under pKd 3.1 to 4

Binder | pKd
B1 | 3.72

Each binder was assayed against T4, LNX2_2, Q8N448 (assay: holdup assay). Details: plain residues with an end cap or a label only (N-terminal biotin on a linker: ado-ado).
T4 sequence (Q8N448 334-432, limits assumed, looked up): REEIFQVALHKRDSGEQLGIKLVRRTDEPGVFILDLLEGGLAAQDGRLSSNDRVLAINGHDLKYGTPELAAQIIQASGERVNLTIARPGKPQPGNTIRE
Design: key: below the threshold = too weak to quantify, mostly under pKd 3.1 to 4

Binder | pKd
B1 | 3.78

These binders were tested against T5, MPP2, Q14168 (assay: holdup assay). Details: plain residues with an end cap or a label only (N-terminal biotin on a linker: ado-ado).
T5 sequence (Q14168 180-250, limits assumed, looked up): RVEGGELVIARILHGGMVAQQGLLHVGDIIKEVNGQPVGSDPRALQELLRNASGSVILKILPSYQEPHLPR
Design: key: below the threshold = too weak to quantify, mostly under pKd 3.1 to 4

Binder | pKd
B1 | below the threshold

Each binder was assayed against NHERF4_1, Q86UT5-2 (assay: holdup assay). Details: plain residues with an end cap or a label only (N-terminal biotin on a linker: ado-ado).
Design: key: below the threshold = too weak to quantify, mostly under pKd 3.1 to 4

NHERF4_1, Q86UT5-2, sequence (Q86UT5 other isoform, or with tags, fused parts or gaps): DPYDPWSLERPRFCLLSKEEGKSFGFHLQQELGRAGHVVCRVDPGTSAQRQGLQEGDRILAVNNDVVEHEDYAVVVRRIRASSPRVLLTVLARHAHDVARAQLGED

Binder | pKd
B1 | below the threshold

These binders were tested against PARD3_3, Q8TEW0 (assay: holdup assay). Details: plain residues with an end cap or a label only (N-terminal biotin on a linker: ado-ado).
Design: key: below the threshold = too weak to quantify, mostly under pKd 3.1 to 4

PARD3_3, Q8TEW0, sequence (Q8TEW0 582-685): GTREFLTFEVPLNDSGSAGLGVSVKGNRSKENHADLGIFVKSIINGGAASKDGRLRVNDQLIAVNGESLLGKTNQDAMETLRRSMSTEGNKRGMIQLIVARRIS

Binder | pKd
B1 | below the threshold

Each binder was assayed against T6, PCLO, Q9Y6V0 (assay: holdup assay). Details: plain residues with an end cap or a label only (N-terminal biotin on a linker: ado-ado).
T6 sequence (Q9Y6V0 4491-4600, limits assumed, looked up): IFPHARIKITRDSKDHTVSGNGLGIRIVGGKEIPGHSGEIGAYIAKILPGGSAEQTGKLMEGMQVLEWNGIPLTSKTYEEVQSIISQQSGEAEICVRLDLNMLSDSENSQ
Design: key: below the threshold = too weak to quantify, mostly under pKd 3.1 to 4

Binder | pKd
B1 | below the threshold

Each binder was assayed against PDLIM1, O00151 (assay: holdup assay). Details: plain residues with an end cap or a label only (N-terminal biotin on a linker: ado-ado).
Design: key: below the threshold = too weak to quantify, mostly under pKd 3.1 to 4

PDLIM1, O00151, sequence (O00151 1-87): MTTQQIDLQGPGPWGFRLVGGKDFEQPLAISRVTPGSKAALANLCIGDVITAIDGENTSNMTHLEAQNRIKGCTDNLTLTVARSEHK

Binder | pKd
B1 | below the threshold

What follows are binders tested against T7, PDZRN3_1, Q9UPQ7 (assay: holdup assay). Details: plain residues with an end cap or a label only (N-terminal biotin on a linker: ado-ado).
T7 sequence (Q9UPQ7 244-349, limits assumed, looked up): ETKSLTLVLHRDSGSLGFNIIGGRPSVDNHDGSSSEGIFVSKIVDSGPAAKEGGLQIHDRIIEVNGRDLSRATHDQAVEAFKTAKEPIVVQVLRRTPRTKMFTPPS
Design: key: below the threshold = too weak to quantify, mostly under pKd 3.1 to 4

Binder | pKd
B1 | below the threshold

These binders were tested against T8, RHPN1, Q8TCX5 (assay: holdup assay). Details: plain residues with an end cap or a label only (N-terminal biotin on a linker: ado-ado).
T8 sequence (Q8TCX5 508-602, limits assumed, looked up): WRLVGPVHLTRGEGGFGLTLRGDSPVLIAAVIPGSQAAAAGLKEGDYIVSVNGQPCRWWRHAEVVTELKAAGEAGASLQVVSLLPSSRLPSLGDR
Design: key: below the threshold = too weak to quantify, mostly under pKd 3.1 to 4

Binder | pKd
B1 | 3.58

Each binder was assayed against T9, SNTA1, Q13424 (assay: holdup assay). Details: plain residues with an end cap or a label only (N-terminal biotin on a linker: ado-ado).
T9 sequence (Q13424 82-180, limits assumed, looked up): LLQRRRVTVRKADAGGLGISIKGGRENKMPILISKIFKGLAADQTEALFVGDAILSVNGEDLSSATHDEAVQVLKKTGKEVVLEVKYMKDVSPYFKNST
Design: key: below the threshold = too weak to quantify, mostly under pKd 3.1 to 4

Binder | pKd
B1 | below the threshold

These binders were tested against T10, SNTG2, Q9NY99 (assay: holdup assay). Details: plain residues with an end cap or a label only (N-terminal biotin on a linker: ado-ado).
T10 sequence (Q9NY99 68-166, limits assumed, looked up): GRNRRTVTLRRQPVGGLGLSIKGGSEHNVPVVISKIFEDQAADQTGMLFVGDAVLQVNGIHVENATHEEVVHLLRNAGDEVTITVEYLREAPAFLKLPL
Design: key: below the threshold = too weak to quantify, mostly under pKd 3.1 to 4

Binder | pKd
B1 | below the threshold

These binders were tested against SNX27, Q96L92 (assay: holdup assay). Details: plain residues with an end cap or a label only (N-terminal biotin on a linker: ado-ado).
Design: key: below the threshold = too weak to quantify, mostly under pKd 3.1 to 4

Binder | pKd
B1 | below the threshold

These binders were tested against T11, TX1BP3, O14907 (assay: holdup assay). Details: plain residues with an end cap or a label only (N-terminal biotin on a linker: ado-ado).
T11 sequence (O14907 10-122, limits assumed, looked up): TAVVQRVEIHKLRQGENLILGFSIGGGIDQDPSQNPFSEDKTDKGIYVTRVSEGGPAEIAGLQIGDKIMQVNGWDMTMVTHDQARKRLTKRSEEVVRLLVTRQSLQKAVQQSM
Design: key: below the threshold = too weak to quantify, mostly under pKd 3.1 to 4

Binder | pKd
B1 | 3.9
